In patent US20220185894A1:

Columns and labels:
[1] = target: mouse LAG-3 expressed on cells (mouse) (UniProt Q61790); assay: flow cytometry on HEK cells expressing mouse LAG-3
[2] = target: mouse LAG-3 expressed on cells (mouse) (UniProt Q61790); assay: flow cytometry on HEK cells expressing murine LAG-3
[3] = target: CD20 endogenously expressed on Raji cells (UniProt P11836); assay: cell-based or functional assay
[4] = target: human FcγRIIIa (R&D Systems, 4325-FC) (human) (UniProt P08637); assay: SPR, Biacore T200; FcγR immobilised, 200 µg/ml injected
[5] = target: human FcγRI (R&D Systems, 1257-FC) (human) (UniProt P12314); assay: as above
[6] = target: human FcγRIIa (R&D Systems, 1330-CD) (human) (UniProt P12318); assay: SPR, Biacore T200; FcγR immobilised, 500 µg/ml injected
[7] = target: human FcγRIIb/c (R&D Systems, 1875-CD) (human) (UniProt P31994); assay: as above
[8] = target: human FcγRIIa (R&D Systems, 1330-CD) (human) (UniProt P12318); assay: SPR, BIAcore 3000; FcγR immobilised, 500 µg/ml injected
[9] = target: human FcγRIIb/c (R&D Systems, 1875-CD) (human) (UniProt P31994); assay: as above
[10] = target: human FcγRI (R&D Systems, 1257-FC) (human) (UniProt P12314); assay: SPR, BIAcore 3000; FcγR immobilised, 100 µg/ml injected

Sequence of mouse LAG-3 expressed on cells (mouse) (Q61790 24-521 limits assumed): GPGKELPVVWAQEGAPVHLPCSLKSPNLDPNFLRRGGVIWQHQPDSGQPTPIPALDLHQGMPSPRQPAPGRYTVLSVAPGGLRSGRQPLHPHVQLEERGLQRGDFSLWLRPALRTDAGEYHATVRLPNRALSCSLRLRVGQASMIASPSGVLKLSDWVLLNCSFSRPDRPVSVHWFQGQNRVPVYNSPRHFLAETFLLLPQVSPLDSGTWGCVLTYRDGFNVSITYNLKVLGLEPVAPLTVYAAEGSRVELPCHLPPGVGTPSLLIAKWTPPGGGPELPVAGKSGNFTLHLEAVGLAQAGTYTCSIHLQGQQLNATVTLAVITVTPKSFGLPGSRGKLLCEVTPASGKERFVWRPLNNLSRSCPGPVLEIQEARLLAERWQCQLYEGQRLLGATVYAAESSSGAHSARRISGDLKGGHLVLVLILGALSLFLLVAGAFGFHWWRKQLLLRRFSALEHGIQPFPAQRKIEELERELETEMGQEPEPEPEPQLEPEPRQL
Sequence of CD20 endogenously expressed on Raji cells (P11836 whole entry): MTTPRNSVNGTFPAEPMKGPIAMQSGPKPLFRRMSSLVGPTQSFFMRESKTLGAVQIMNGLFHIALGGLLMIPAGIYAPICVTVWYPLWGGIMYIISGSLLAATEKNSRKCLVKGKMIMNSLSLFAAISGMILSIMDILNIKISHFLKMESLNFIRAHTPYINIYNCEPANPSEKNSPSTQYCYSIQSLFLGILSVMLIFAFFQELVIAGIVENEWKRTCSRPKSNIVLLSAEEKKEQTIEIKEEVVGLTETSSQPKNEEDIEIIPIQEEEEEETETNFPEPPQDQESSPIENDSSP
Sequence of human FcγRI (R&D Systems, 1257-FC) (human) (P12314 16-288 limits assumed): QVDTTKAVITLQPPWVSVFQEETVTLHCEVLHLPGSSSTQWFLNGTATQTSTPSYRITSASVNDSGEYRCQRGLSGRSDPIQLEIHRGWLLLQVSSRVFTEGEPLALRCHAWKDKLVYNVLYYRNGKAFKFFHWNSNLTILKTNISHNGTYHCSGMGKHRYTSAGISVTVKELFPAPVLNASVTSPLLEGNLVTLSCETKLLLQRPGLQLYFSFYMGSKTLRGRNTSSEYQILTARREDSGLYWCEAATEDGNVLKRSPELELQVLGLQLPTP
Sequence of human FcγRIIa (R&D Systems, 1330-CD) (human) (P12318 36-218 limits assumed): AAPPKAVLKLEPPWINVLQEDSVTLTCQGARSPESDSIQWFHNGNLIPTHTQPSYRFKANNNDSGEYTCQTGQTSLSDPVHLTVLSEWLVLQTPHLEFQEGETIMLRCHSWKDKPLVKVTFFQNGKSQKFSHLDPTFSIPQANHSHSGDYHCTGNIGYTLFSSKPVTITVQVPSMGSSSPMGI
Sequence of human FcγRIIb/c (R&D Systems, 1875-CD) (human) (P31994 46-217 limits assumed): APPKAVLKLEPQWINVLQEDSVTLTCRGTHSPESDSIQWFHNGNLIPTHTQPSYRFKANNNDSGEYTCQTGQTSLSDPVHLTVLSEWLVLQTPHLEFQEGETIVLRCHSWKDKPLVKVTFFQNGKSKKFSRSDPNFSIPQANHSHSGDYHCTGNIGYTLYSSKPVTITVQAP
Sequence of human FcγRIIIa (R&D Systems, 4325-FC) (human) (P08637 17-208 limits assumed): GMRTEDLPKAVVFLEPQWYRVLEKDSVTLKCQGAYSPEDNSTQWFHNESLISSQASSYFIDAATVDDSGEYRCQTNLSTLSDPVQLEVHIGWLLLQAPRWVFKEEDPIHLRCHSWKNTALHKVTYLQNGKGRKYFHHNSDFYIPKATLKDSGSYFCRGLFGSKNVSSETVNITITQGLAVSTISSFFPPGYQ

Substance	binding response at end of association (RU) [4] [RU]	binding response at end of association (RU) [5] [RU]	binding response at end of association (RU) [6] [RU]	binding response at end of association (RU) [7] [RU]	binding response at end of association (RU) [8] [RU]	also measured
benchmark anti-mouse LAG-3 mAb C9B7W (2B Scientific, BE0174-50MG) (antibody)	–	–	–	–	–	EC50 [1]: 79 nM; fold poorer affinity (EC50) than the Fcabs [1]: 17 fold; EC50 [2]: 27 nM
anti-CD20 antibody Rituximab (generic version, IgG1 format)	–	–	–	–	–	ADCC, LDH release, maximum lysis of LAG-3 expressing Raji cells [3]: 40%; ADCC, LDH release, maximum lysis of PD-L1 expressing Raji cells [3]: 40%; CDC, LDH release, maximum lysis of PD-L1 expressing Raji cells [3]: < 60%
monoclonal IgG2 isotype mAb to an irrelevant target (antibody)	1.9	0	9.7	7.4	9	–
mouse IgG1 (Sigma, P5305) (antibody)	–	–	–	–	7	–
monoclonal IgG4 isotype mAb to an irrelevant target (antibody)	3.1	9	4.3	15.1	8	binding response at end of association (RU) [9]: 9 RU; binding response at end of association (RU) [10]: 8 RU
